From patent publication US9823254B2, “Reversible chemoenzymatic labeling of native and fusion carrier protein motifs” (The Regents of the University of California, priority 2012, dated 2017)
Where “and” joins values, the source holds several entries; their conditions need not be identical. Equal values may be shown once.

Key:
L majuscula JamF = assay: AcpH qualitative CP activity, gel-based, crypto-CP; format: biochemical; details: PKS; crypto-CP (coumarin-PPant), overnight, 37° C., 1 μM AcpH
V. cholerae VibB = molecular target: T1, V. cholerae VibB (Vibrio cholerae serotype O1, UniProt P0C6D3); details: NRPS; crypto-CP (coumarin-PPant), overnight, 37° C., 1 μM AcpH
T1 sequence (P0C6D3 whole entry, looked up): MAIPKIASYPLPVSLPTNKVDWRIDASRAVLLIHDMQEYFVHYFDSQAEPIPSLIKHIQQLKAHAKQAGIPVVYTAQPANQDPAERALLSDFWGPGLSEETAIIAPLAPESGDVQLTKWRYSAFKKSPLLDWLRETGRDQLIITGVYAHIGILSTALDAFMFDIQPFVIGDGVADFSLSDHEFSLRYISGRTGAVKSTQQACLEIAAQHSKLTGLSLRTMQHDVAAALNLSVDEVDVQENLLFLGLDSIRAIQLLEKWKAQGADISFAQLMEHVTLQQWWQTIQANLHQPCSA

G. fujikuroi Pks4 = assay: AcpH qualitative CP activity, gel-based, crypto-CP; format: biochemical; details: PKS; crypto-CP (coumarin-PPant), overnight, 37° C., 1 μM AcpH
Experimental: (§1) Unless otherwise noted, all coumarin-PPant labeling proceeded as follows: apo-carrier protein or peptide at 50-200 μM were labeled in 50 mM Na-HEPES pH 7.5, 10 mM MgCl2, 8 mM ATP, 0.1 μM MBP-CoaA/D/E, 0.1 μM native Sfp, and 1.1 equivalents of coumarin-pantetheine at 37° C. overnight. Crypto-protein samples were repurified using standard IMAC techniques in pH 8 lysis buffer with Ni-NTA resin, and spin-concentrated/buffer exchanged to remove imidazole and concentrate with 0.5 mL 3 kDa MWCO cellulose filters. Crypto-peptide samples were purified with HPLC, lyophilized, and redissolved in 50 mM TrisCl pH 8.0 prior to analysis.
(§2) Following AcpH treatment, an equal volume of 2×SDS-PAGE loading dye was added to crypto-carrier proteins samples and heated 5 min at 90° C., and run on 12% or 15% SDS-PAGE. Gels were fixed in 50/40/10% water/methanol/acetic acid for 30 minutes, and washed with water three times before UV imaging. Holo-carrier protein reactions were analyzed with Urea-PAGE as previously described.^6 All protein gels were Coomassie stained for evaluating total protein. Crypto-peptides were evaluated on Urea-PAGE, and were imaged immediately after running with no gel fixing.

holo-ACP (E. coli) = holo-ACP (E. coli) (Escherichia coli, UniProt P0A6A8); details: 37° C., HPLC detection, [AcpH] 1 (CyAcpH 0.005) μm
Experimental: Holo-E. coli AcpP was prepared as a serial dilution in 50 mM TrisCl, 250 mM NaCl, 30 mM MgCl2, and 2 mM MnCl2. […] CyAcpH was prepared at 10 nM in the same AcpH buffer. […] Reactions were transferred to prewarmed shaker at 37° C. and were quenched with 100 mM EDTA after 10 minutes. Samples were centrifuged and evaluated at 210 nm with HPLC using an acetonitrile gradient to determine apo-AcpP product formation. Michaelis-Menten kinetics were calculated using GraphPad Prism (GraphPad Software, La Jolla, Calif.).
E. coli holo-ACP was diluted into 50 mM TrisCl pH 8.0, 250 mM NaCl, 10% glycerol, 30 mM MgCl2 and 2 mM MnCl2 buffer to a concentration of 800 μM. […] AcpH was diluted from MOPS lysis buffer into 50 mM TrisCl pH 8.0, 250 mM NaCl, 10% glycerol and added to an equal volume of the holo-ACP serial dilution to initiate the reaction. Reaction tubes were transferred to a pre-warmed rack at 37° C. and shaken for the duration of the experiment. […] All samples were frozen at -80° C. until evaluated by HPLC.
Kinetics samples were mixed briefly with finger flicking, and centrifuged at 13000 rpm for 10 minutes at room temperature prior to transferring contents into HPLC vials. 20 μL of each reaction time point was injected on an Agilent 1100 series HPLC with column (Burdick & Jackson OD5 #9575, 25 cm×4.6 mm ID) using an acetonitrile/water gradient. Both water and acetonitrile contained 0.05% TFA. Method gradient for each injection: 0-5 min with 10% acetonitrile, 5-30 min with 10-100% acetonitrile, 30-35 min with 100% acetonitrile, 35-37 min with 100-10% acetonitrile, 37-40 min with 10% acetonitrile. HPLC-grade solvents (J. T. Baker, Phillipsburg, N.J.) were used exclusively. Apo- & holo-ACP protein standards were used to validate the retention times identified using 210 nm UV light at approximately 21 and 19 minutes, respectively. Peak integration was performed for all samples, and substrate turnover was calculated from the ratio of apo- to holo-ACP present in the HPLC trace and the known concentration of total ACP in reaction samples. Calculated rates for AcpH versus substrate concentration were obtained through Excel data analysis and graphed in Prism GraphPad using the “Michaelis-Menten” function for enzyme kinetics, with a zero data point added for substrate concentration of 0 μM*min-1 and 0 μM substrate for AcpH graphs.

M. tuberculosis AcpM = M. tuberculosis AcpM (Mycobacterium tuberculosis, UniProt P9WQF3); details: FAS; crypto-CP (coumarin-PPant), overnight, 37° C., 1 μM AcpH
P. fluorescens PltL = assay: AcpH qualitative CP activity, gel-based, crypto-CP; format: biochemical
Experimental: (§3) Unless otherwise noted, all coumarin-PPant labeling proceeded as follows: apo-carrier protein or peptide at 50-200 μM were labeled in 50 mM Na-HEPES pH 7.5, 10 mM MgCl2, 8 mM ATP, 0.1 μM MBP-CoaA/D/E, 0.1 μM native Sfp, and 1.1 equivalents of coumarin-pantetheine at 37° C. overnight. Crypto-protein samples were repurified using standard IMAC techniques in pH 8 lysis buffer with Ni-NTA resin, and spin-concentrated/buffer exchanged to remove imidazole and concentrate with 0.5 mL 3 kDa MWCO cellulose filters.
(§4) Following AcpH treatment, an equal volume of 2×SDS-PAGE loading dye was added to crypto-carrier proteins samples and heated 5 min at 90° C., and run on 12% or 15% SDS-PAGE. Gels were fixed in 50/40/10% water/methanol/acetic acid for 30 minutes, and washed with water three times before UV imaging. Holo-carrier protein reactions were analyzed with Urea-PAGE as previously described.^6 All protein gels were Coomassie stained for evaluating total protein.

P. falciparum ACP = assay: AcpH qualitative CP activity, gel-based, crypto-CP; format: biochemical; details: FAS; crypto-CP (coumarin-PPant), overnight, 37° C., 1 μM AcpH
Experimental: as §1, §2

A. orientalis CepK = assay: AcpH qualitative CP activity, gel-based, crypto-CP; format: biochemical; details: NRPS; crypto-CP (coumarin-PPant), overnight, 37° C., 1 μM AcpH
[1] = system: ACP fusion proteins (MBP, GFP, Lux-ACP); assay: AcpH label removal from rhodamine-labeled ACP fusion proteins; format: biochemical; details: N-terminal MBP, C-terminal GFP, N-terminal luciferase (Lux-ACP) fusions
Experimental: Purified apo-MBP-PaACP at 200 μM was labeled with 1 mM rhodamine-CoA and 13 μM native Sfp in a reaction volume of 20 μL for 3 hours at 37° C. Purified apo-GFP-ACP at 150 μM was labeled with 1 mM rhodamine-CoA and 7 μM native Sfp in a reaction volume of 35 μL for 3 hours at 37° C. Purified apo-Lux-ACP at 12 μM was labeled with 50 μM rhodamine-CoA and 3 μM native Sfp for 1 hour at 37° C. Fusion ACPs were then re-purified from excess rhodamine-CoA and native Sfp using Ni-NTA resin, and buffer exchanged and concentrated using 10 kDa MWCO 0.5 mL Amicon spin filters (Millipore). Label removal of MBP-ACP and GFP-ACP proceeded with 4 μL of the concentrated crypto-fusion ACPs with 10 μM AcpH in 10 μL of AcpH reaction buffer for 3 hours at 37° C. 6 μM crypto-Lux-ACP was reacted with 5 μM AcpH for 3 hours at 37° C. AcpH reaction samples were run immediately afterwards on Urea-PAGE (MBP-ACP and GFP-ACP) or SDS-PAGE (Lux-ACP) with no further purification.

YbbR13 = assay: AcpH activity with modified ybbR peptide, qualitative; format: biochemical; details: coumarin-PPant labeled
S. coelicolor ActACP = molecular target: T2, S. coelicolor ActACP (Streptomyces coelicolor, UniProt Q02054); assay: AcpH qualitative CP activity, gel-based, crypto-CP; format: biochemical; details: PKS; crypto-CP (coumarin-PPant), overnight, 37° C., 1 μM AcpH
T2 construct: made in house
T2 sequence (Q02054 whole entry, looked up): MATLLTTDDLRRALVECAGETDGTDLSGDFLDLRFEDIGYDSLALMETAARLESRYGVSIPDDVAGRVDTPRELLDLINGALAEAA
Experimental: as §1, §2

P. syringae SyrB1 = P. syringae SyrB1 (Pseudomonas syringae pv. syringae, UniProt Q52400); assay: AcpH qualitative CP activity, gel-based, crypto-CP; format: biochemical; details: NRPS; crypto-CP (coumarin-PPant), overnight, 37° C., 1 μM AcpH
Experimental: as §3, §4

E. coli ACP (AcpP) = E. coli ACP (AcpP) (Escherichia coli, UniProt P0A6A8); details: SDS-PAGE
Experimental: 50 mL LB media supplemented with 25 μM calcium D-pantothenate, 50 mM D-glucose, and 50 μg/mL kanamycin utilized previously. Media was inoculated with 1 mL of overnight DK554 starter culture and grown to OD=0.4. IPTG was added at a concentration of 1 mM to the media and was shaken for 5 hours at 37° C. Media was centrifuged at 4000 rpm at 4° C. for 30 minutes to pellet cells. Cell pellets were resuspended in 25 mM TrisCl pH 7.5, 250 mM NaCl, 0.1 mg/mL lysozyme, 10 μM pepstatin, 10 μM leupeptin and passed twice through a French pressure device at 1000 psi. Removal of coumarin-pantetheine from ACP in 5 mL lysate used 10 μM MBP-AcpH fusion in 600 mL AcpH reaction buffer (50 mM TrisCl, pH 8.0, 100 mM NaCl, 10% glycerol, 15 mM MgCl2, 1 mM MnCl2) within a 3 kDa MWCO dialysis bag at 37° C. overnight.
E. coli DK554 cell lysate with total protein concentration of approximately 2 mg/mL was added to the volume of premade 10×PPTase reaction buffer (500 mM Na-HEPES, 100 mM MgCl2, pH 7.4) that brought the total reaction concentration to 50 mM Na-HEPES pH 7.4, 10 mM MgCl2, 5 μM of coumarin-CoA, and 2 μM Sfp. […]

P. agglomerans AdmA = assay: AcpH qualitative CP activity, gel-based, crypto-CP; format: biochemical; details: NRPS; crypto-CP (coumarin-PPant), overnight, 37° C., 1 μM AcpH
Experimental: as §3, §4

M. tuberculosis MAS = assay: AcpH qualitative CP activity, gel-based, crypto-CP; format: biochemical; details: FAS (FAS/PKS hybrid), overnight, 37° C., 1 μM AcpH
P. agglomerans AdmI = assay: AcpH qualitative CP activity, gel-based, crypto-CP; format: biochemical; details: PKS; crypto-CP (coumarin-PPant), overnight, 37° C., 1 μM AcpH
Experimental: as §3, §4

B1: PaAcpH: acyl carrier protein hydrolase (AcpH) from P. aeruginosa PAO1, NP13 253043.1 (protein)
chain: MNYLAHLHLGGPQPAQLLGSLYGDFVKGRLQGQWPDEIERAIQLHRRIDAFTDSHPLVHAAKRRFPLERRRFAGVLLDVFFDHCLARDWNDYADEPLPQFVERVYGTLRTASPLPERLARIAPRMAAQDWLGSYREFAVLREVLGGMSRRLSRPHLLDGSWEELAQRYDDLSADFRAFYPQLQAFALSQR
- AcpH qualitative CP activity (L majuscula JamF): no
- AcpH qualitative CP activity (V. cholerae VibB): no
- AcpH qualitative CP activity (G. fujikuroi Pks4): no
- Km (holo-ACP (E. coli)): 12 ± 2 µM
- Vmax (holo-ACP (E. coli)): 0.59 ± 0.02 min⁻¹
- kcat (holo-ACP (E. coli)): 0.01 s⁻¹ and 0.00983 ± 0.00033 s⁻¹
- AcpH qualitative CP activity (M. tuberculosis AcpM): YES
- AcpH activity with PltL (P. fluorescens PltL; NRPS-type PCP, crypto-PltL): partial activity
- AcpH qualitative CP activity (P. fluorescens PltL; NRPS, crypto-CP (coumarin-PPant), overnight, 37° C., 1 μM AcpH): YES
- AcpH qualitative CP activity (P. falciparum ACP): YES
- AcpH qualitative CP activity (A. orientalis CepK): no
- removal of rhodamine-PPT from ACP fusion proteins [1]: removed rhodamine-PPT
- AcpH activity with modified ybbR peptide (YbbR13; YbbR13: N-term 6xHis, C-term GFP): no
- AcpH activity with modified ybbR peptide (YbbR13; YbbR13: N-term FITC, C-term N/A): no
- AcpH activity with modified ybbR peptide (YbbR13; YbbR13: N-term GFP, C-term 6xHis): no
- AcpH activity with modified ybbR peptide (YbbR13; YbbR13 free peptide: N-term N/A, C-term N/A): no
- AcpH qualitative CP activity (S. coelicolor ActACP): no
- AcpH qualitative CP activity (P. syringae SyrB1): no
- removal of coumarin-PPT from ACP (E. coli ACP (AcpP); coumarin-labeled E. coli DK554 lysate, 254 nm): uniformly removed
- removal of rhodamine label from ACP (E. coli ACP (AcpP); rhodamine-labeled ACP, 532 nm): can also be removed
- AcpH qualitative CP activity (P. agglomerans AdmA): no
- AcpH qualitative CP activity (M. tuberculosis MAS): no
- AcpH qualitative CP activity (P. agglomerans AdmI): no
